Measurements: the DeepSol protein solubility set

Assay: soluble on expression in E. coli; label from the status in PepcDB or PDB records

Sequence | soluble on expression in E. coli
GPGSMAKHYKAIFAMSYEAELYAHLQASQRFNAGADAAVVLHADSDEAMRRHLGISIDPINGTNCCVGGVWQAPMTLVGIALDGVPIAGVMNRIFDYPLTCTYGPAATEPQEKACVPGLAVVLNTPTPASPFVVFDGGLVPAPGQMEQQLECTCETPLAVCRSSTTKEVFLQRLLTQLEPCNAVYSRGAGYKQYHLLKKMLTGRHVAHEAITPADIFVCPPGTIEKWDCCVVHAFLYALGGEIFDQNGVPIRYPLVGTYGAATTSLSEIAALTDGLVAVTPYAMHEVARRLGWTLTLAP | not soluble
GPGSMALVHTTYPQCLSLVEADTAEAEVQQALEDGANTLYFSHHFNYTDVPPSIAALREQLEVLHIDNNYPFTTISPRVTALTNLRWLNASYCSLRSVDSSISRLSKLERLTLNNNMLTWLPLDVWQLKALEELHIDNNQLNVLPGCLLFLPRLRVLTLENNPLYTHEEVNGAAAATYIPVQCSVDCSACCIRSRNYKVFVTFHTIVGHSDVPFVHVVCSDECAVHVRSRLEAYDRAHANQP | soluble
GPGSMAMRDVIGDPDLLLRKTPANPKYEHVKPVVETGMTAELARFMKNTGAALYRVSGEPFMRIRTRLIGDFVQKQQSQSGEIKDGGFAHPMDEYRAPDTQLPKEYLILDVRSEEEYAACHIKGALHYPKRRMVHAINPLLPEMFNFKNKENKLIVLYDLEEEMTIAQGIGQNVFEKGIDNLAVMTGGLREFVQDYADCIVGESPVPIVPRDTRLLKRAEAVSAARSETQRSAFSHKPKSLSNSLAKPRPR | soluble
GPGSMDRGYPRRREGGASFGGGGFGGVGGFSGGSGGPPAGGPRRRFRSDFDPEEYAPRRKLHGQRPVDFYSPAIRHVLTRLVPRSTPYSYHVAPHEYYTKDLVTASVTNYNASTALCTQWVNTSYHPDSKGGRIRTPLYALQWSPSGRRLLCSTGRGEFLLFNGQSFGVEVKTVAHEDNRPCRAIAWGRRHDLILSGDDAGKLKMWMPNFVFMSEVDTSHRAVREISWAPLELKFCTAGQDGSAKVWDTNTVGAHTATAGASDGNQAVLEEVKLEGHGGDVTTAHWHPYRALIATGSQDTQCRLWDPRTASRGSIAALHGHSQALTCVRWHPDGRTLLSASKDGTVKLWDIRKTQPEVKRFTGHTDAVDKVDWHPTVSDLFASTGADGSVMYWMVAEGDGTMTHGVEEVVHDAAMIEAAHEKFRDKPNPVHCVAWSPLGNILASSGHEVKYWTRNKPGALEEKERGVESDILDEQGHVMV | not soluble
GPGSMEEQDQRKPNGGNNGLPVPPSTTETGQGPLQDILGRTPNCQYVKKRLLGQGSFGSAWRVEESATGNVFAAKVMDLNNMSEKDRGFVTNEVKCLSRCCNPHVVRCENAIEREGQLLIVMEYADGGDLYKQIKARVREMKFFREHEVVFIFLQLCLALDHIHSNKMMHRDLKTANILLTTTGLVKLGDFGFSRQYEDSLSNAVGSTFCGTPYYLSPELWHRQPYSKKSEMWALGVVLYEVMALRRPFTGKNMDELITNICHGRCSDLPSSYSASLRDVCNRLLSVDPNTRPTIHELFHEPFIRSNLETLKRSVEKHNRIPADVREAIARCITQSLNTEEPPAHLEEPEPLIGTVKRHTALRGWQKCLLSFDEKQISIRDPSGVDPEEVVPVATLTSVCPIDVMMAGEEFVFAMKNQAGKAFWFMAPSQRAYEQWLTTLQEAAP | soluble
GPGSMEQGAFNDVAKKALEFRNRYYKMLDDPQDRLNVAGLYAPDVPMVCEWNGHPLSTVDDVRNYISALPKTSHQVDMVDAQPLPDNQDGDSFLLTVHGIVTYNDEHRREFYQRMVIRRFEQRYYILNDYYRWLSERSQ | soluble
GPGSMESSMSTGDLLTPGALWQDDTKVFVCSGRRCGRRFNRLFCPKHRCRWCGRVYCDACAPKQTVYKRQLLRKCNRCRLPVVFRYSWNERTRAMDCTPFECIISYLTPRSITALLQSCYTMMSEFPVCGYPFYDSIQQRFPSFYPGAQIGRGTFGTVFKCEDRSAADHKRAILKCISKATNLTYTRWMGALTELRILESVNHPNVAHLLGAFQTREDLVIVMEAGEGGTARRAAAGVREYGQAAEEAFTANIIEGVAAGLNYLYREKHIIHRDIKLDNIVLSADYSTPMIIDFGLAEFVVNEEEQWYVVGGTRNYAAPESIAAVANGHVDMKEPGITMHKGDLFSLGVVAYYLLSGHRPFRSRSFDKMHEEMRRGVACTGPLWDGVSSDARELVQALLSYDPAQRPDYAAIKENPFITARTAGVKSIQMQRNARLLLDEEETHAEWVTLEPSDLREAADEGESEVLLPLSTPQRWYHAYLPRFSLLHL | not soluble
GPGSMGEGRIRCYYEVLEVERKATYDEIRTAYKKKSLQYHPDKNYGNQEEAAMRFKEVQNAYSILSDADERAWYDSHREAILRGGDGTGDLDELNLYEYFTAGCFDGFDDGESGFYTVYRKVFDILIEEESDYDSRAKLWPGFGTSTSDWADVQKFYGYWRNFSTYKTFTWKDEYKVNEMEDRYSRRMAGRINSKARDGAKKEYVRTVQSLAQFVYRRDPRVKAELERQEKEDQAKREERERQEIERLKRRREANERVWAEAAEREAREEAERAARGEAMDGSILEMLYEKERQTKEMMRGSGGVGAHTAGFAMLGGDDDEAVTVFNCPACKKQFKSENQYKEHVRSNKHKTKLKQLAAKGTDVAALMGEKVEGGSGGTEE | soluble
GPGSMGIPLPKPVMTQLQERYGNTIFRCGSNCVNGYRETMEDAHLTYLTDSWGFFGVFDGHVNDQCSQYLERAWRSAIEKESIPMTDERMKELALQIDQEWMDSGREGGSTGTFFVALKEGNKVHLQVGNVGDSRVVACIDGVCVPLTEDHKPNNEGERQRIENCAGRVENNRVDGSLAVSRAFGDREYKLGSGSQLEQKVIALADVQHKDLTFNSNDFVLLCCDGVFEGNFPNEEVVAYVKQQLETCNDLAEVAGSVCEEAIERGSRDNISCMIVQFKDGSDYAAAPHTTVVPGPFSAPRNSGFRKAYESMADKGNTTVGALLEKRYDTLKAAEALTPEETEELSQFENGPEAKLTGAERQKWFSNYFQKLCEAASNGPSDQMERLQSLQQQAGIPLSILLSLMGEQTQ | soluble
GPGSMIEADVIRLNMEVEAAAARNADLSREVARLREELANSGLHNMDRTLVITEGTQTDSGMLREVALDLDDILFEVSELLFRLYPASSLDLSVRRDAQSSQLNDLSQRCLREVRSLKAAWEMKLDGYNQFISNIQRSQVDYHRSLDSKECQLRRKQQECDVLVGENARLSTLCSELESQLKTTQEAATRAEEQVGRLLQQTADLEAERRRLLDREAAMANTLVALRAECAFNPWSSLVGVKEAATTIESNGQLPSVREQAVAVTKAHIKPPGAVSASDVAMAFQGLDLDGQLPHMCVEPESVVDYYCKVKHSSPTRSLM | soluble
GPGSMIGAPWPPEAVFGNTVDRVASPAPVPERKISIADQLHLPLSRFVEKMSWGEKRRVQILHGMLYPATVYLLDECSTDIDVAERRTVLELVRQECEAKDGCCVYATHIFDGIEGWATHLLLMEGGRVVDFKAVEKLTLPLEDYALQFMSKRAHAARGVDGVAAASLSHGSSAAISTTS | soluble
GPGSMINLPDMWTAEQRRQHVAEMYRNKGLICPDYFLKNECPRSSSCSYIHIRNGETRKVPLSVCHFYAKRACLRDKCVFFHGTQAQLDQLHAMGAQTYRPQDYMAFAIPPPELLGTDQNVAPPVVTMPMPVPAPLVNNTMPISKPATNSPLLLLPIDASAATPFSMYWSSSPCQHRSPLSPAPIPGLAEPRPPAVSHPYTVFSFFQ | not soluble
GPGSMLDRLSCLGPRTKRWLHNNLRGRYVRVCTREQHSRKQLTPAGGPQGSALRPQLFLHCVDDLLRRMDNIYSASALMYADDLTVVASGAGTHACAAAMPPALSLITAWAAEHNHKINVDKSEAALFHISSHTRSDDEMVNLHLGNGKLRIQSRPVRLLDTTMDQLLNFDYARFHRFK | not soluble
GPGSMLKRSVSAAARKAGADTLAAAPAAGQQPPSNPLLPYALRRAAACEMLYGGSRVQYLVQPPFTLHKIRSENLPPPSLYAERHDLGLEMQLPRDMHVYNSINMAIQRQVGGDSSTLDGEQQQLQGGHADGFDMGAFFTEQHHPERHHNSSLPYAKHDTNNVLAMRLFPVNVGVRARTEAIRIRTDDCLQRLRDADLCAKMRLPLEHPLPLSRRSQYAAIHRVRQERCYDAPTEAAGERAAAAAEEASRTAHLRGAAAHPPPSELSIVTRPVDRLGSHSGSSAAACTADADHLSFPVHPFAAAAVSSGCHSARSGSAARLASQRWLPLQTLKPMGHNWSAATRSSGVRGPHMQLMQERLDQKGFGWKRKSRSLWQQDVATAGFRPHRYF | soluble
GPGSMLRRCAPLLIGVEGDTFVSAIKDKQYLAHRLAILGKEDPNFKAQCMSDDDIKRFTTSLGSAESLFNKQAGAIPTNVVDEETGRVIGSTQPDPTRYGDWEVNGRCYDF | soluble
GPGSMMEGSPSEVHVHSSMAMGLQERPPLELVSHASEVSCLTINDNYDMWNASMYPNLNSGFDASLTSATTPDTTVARFAPAMRPHRKQQLSHQMMPLPARGEQTMSDIDSEVVLWDRPPTQDVLGSPAASGL | soluble
GPGSMNCFGVRNWWRNNLPELQLLNPFCSFTIQELSFGEPHMYINYTPTDQRMIRLAGATEDECEDIMEACITYGMNHAIIERPRTDDGGDLINQPAITSFGYTESFMSKLEVSPPADIGQRTPEGVDDPGQKPRVYPRNVGFKIMP | not soluble
GPGSMPAAPLPGEVAKFCSPLYMHKRILRAAAPKPPTVFTAKDNSKTAFHVVTQRPGFATTPYTVSRWYLKEKVHSSNRNRLEGLYECVLCASCTGSCPQYWWNRELFLGPAVLLQSYRWLIEPLDRDFDSRVKMFEHGPLVNFCHNIFNCSITCPKFLNPGMASKEIKRLSSPATLRVGPPLEDAKVASKY | not soluble
GPGSMPSLANGLRCPDALITRTLNPLLNGPKFAVIYCGNHQYKVAVGDVIAVQRLRVEIGSHIALKKVLMVGGPRFTAIGRPLLEGVRVTAQVEEQKRMRNVVSLFATPGRRHVRWVDAPHAATVIRICEIFYSPNVVGELDKYKGELLETFTPGQHTNPVYPVDDGYDVFRKKDKEAMENATTFLDLLGGV | not soluble
GPGSMPWEVKADNAYGIDYNKLIDKFGCKLITKDMIERMERLTGQKAHHFFRRNIFLSHRDFEKILDVYEKGELFYLYTGRGPSSESLHVGHLVPFLFTKYLQDTFKVPLVIQLTDDEKFIFKSNLTLEETHNYAYENMKDIIACGFDPELTFIFTNLEYIAELYPDILRIEKKISCSQIKSIFGFKDSCNVGKFAFPAVQAAPAFSSSFPHIFGGRTDIHCLVPHAIDQDPYFRMVRDVAPRLGYLKPSSIHSIFLPSLQGSQTKMSASVQNSSIFVNDNEESIRNKIMKYAFSGGQATEEEQRRLGANLDVDVSWQYLRFLMEDDEKLEEIGKKYSSGEMLSGEIKSILVQELVKLTKNHQKNREAINDDVIAKFTNKSREQLLKLFINKK | soluble
GPGSMQAPSEDDVARKEALKRRVEEHMLWKMTFFQSRPPPPFIPKCRRRPEPIANAPVHSFYKRALEIVSAEKEHMSSFCSSASPPTMTKTEPPEGDGAKSKQDVWKHKMMLEMERRNPYTDINIRTDPRSTVVVSSLHPKSLEEDIRLFGEQFGRVVSVRLICDHNGKSRRYGFVQFGLEAEARKAVAHSRKRRLHGHAVVMEMERGRLDRDFLPKRLAEAKRQIEGSSSLCSDKRQRMEGSVKCPPAVAAGRSLPIPVSDTRDEVDAFLDDIMNLT | not soluble
GPGSMQKSKRHGMHMDFNPLEHCNAPMDSVVGYSSDVPSMSNCHRHWLSETYAYTTIGYPHEVMKKMPYGSEWKRAPTGLCWTADEFVARYLLHTRGIFVYFGGSRHDLYWENLKFFGSSGMHRLYERINFENKVEVTTTKRRKRHTPLVGDVVVWDSDYKAYFPRGHVAVVVKVEDDVSAAGGEAALRELKKERRQPSLVYIAEQNFDNKNWEGRNFSRVLKFTWMRGDRASLEDPDGPPLMGHVRVGKLLEDASFFGDL | not soluble
